This series in a line: self-splicing fitness, log relative to wild type (ln ratio); higher = more splicing; Tetrahymena group I intron in knt gene, E. coli kanamycin selection, DiMSum; sequences stand for … in CUCUCU…GGAGGGAAAAGUUAUCAGGCAUGCACCUGGUAGCUAGUCUUUAAACCAAUAGAUUGCAUCGGUUUAAAAGGCAAGACCGUCAAAUUGCGGGAAAGGGGUCAACAGCCGUUCAGUACCAAGUCUCAGGGGAAACUUUGAGAUGGCCUUGCAAAGGGUAUGGUAAUAAGCUGACGGACAUGGUCCUAACCACGCAGCCAAGUCCUAAGUCAACAGAUCUUCUGUUGAUAUGGAUGCAGUUCACAGACUAAAUGUCGGUCGGGGAAGAUGUAUUCUUCUCAUAAGAUAUAGUCGGACCUCUCCUUAAUGGGAGCUAGCGGAUGAAGUGAUGCAACACUGGAGCCGCUGGGAACUAAUUUGUAUGCGAAAGUAUAUUGAUUAGUUUUGGAGUACUCGUGGUCG
In a few lines:
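Pooled colonies went to amplicon sequencing on an Illumina HiSeq 2500 after six replicate transformations. The plates were LB agar with 100 μg/mL carbenicillin, 50 μM IPTG and 0.2% rhamnose, with or without 25 μg/mL kanamycin, incubated overnight at 37°C or 30°C. The E. coli BL21(DE3) library had all eight P1ex-region intron nucleotides randomised, the intron placed in the knt kanamycin-resistance gene on pET-22b(+). DiMSum fitness is the error-weighted combination of replicate fold changes, kanamycin against none, normalised to wild type.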

This note sets out measurements from the supplement of paper PMC7877785.

± gives the uncertainty stated by the source.

As for CGAAAGCAAUAUUACGCGCA, the “self-splicing fitness (ln)” value by setting is: (30 °C) -0.957 ± 0.12; (37 °C) -0.435 ± 0.13. For CGAAAGCAAUAUUACGCGGA, the “self-splicing fitness (ln)” value by setting is: (30 °C) -3.29 ± 0.26; (37 °C) -1.83 ± 0.17. The like results for CGAAAGCAAUAUUACGGAUC were, in that order, -2.95 ± 0.16 and -2.02 ± 0.15. Regarding CGAAAGCAAUAUUACGGCCA, the “self-splicing fitness (ln)” value was -1.29 ± 0.14 (30 °C) and -1.23 ± 0.099 (37 °C). The corresponding values for CGAAAGCAAUAUUACGGCCU are -1.32 ± 0.068 and -0.274 ± 0.082. Turning to CGAAAGCAAUAUUACGGGAC, under “37 °C”, the “self-splicing fitness (ln)” value was -2.59 ± 0.32.

Turning to CGAAAGCAAUAUUACGUAAU, the “self-splicing fitness (ln)” value by setting is: (30 °C) -4.18 ± 0.18; (37 °C) -2.3 ± 0.12. The corresponding values for CGAAAGCAAUAUUACGUCAA are -3.45 ± 0.34 and -2.11 ± 0.25. For CGACAGCAAUAUUACGAACG, the “self-splicing fitness (ln)” value reads like this: (30 °C) -0.656 ± 0.11; (37 °C) -0.117 ± 0.16. The like results for CGACAGCAAUAUUACGAUUC were, in that order, -3.6 ± 0.14 and -0.756 ± 0.08.

For CGACAGCAAUAUUACGCCGC, the “self-splicing fitness (ln)” value (37 °C) was -1.74 ± 0.36. Turning to CGACAGCAAUAUUACGCGCU, the “self-splicing fitness (ln)” value (30 °C) is -3.43 ± 0.12 and the “self-splicing fitness (ln)” value (37 °C) is -1.91 ± 0.13. The like results for CGACAGCAAUAUUACGCUAG were, in that order, -3.79 ± 0.25 and -2.04 ± 0.16. The corresponding values for CGACAGCAAUAUUACGCUCC are -1.44 ± 0.12 and 0.42 ± 0.13. The corresponding values for CGACAGCAAUAUUACGCUCG are -3.34 ± 0.37 and -2.18 ± 0.24. Turning to CGACAGCAAUAUUACGCUGG, the “self-splicing fitness (ln)” value is -3.13 ± 0.18 (30 °C) and -2.1 ± 0.17 (37 °C). The corresponding values for CGACAGCAAUAUUACGGACU are -0.957 ± 0.072 and -0.875 ± 0.11. The corresponding values for CGACAGCAAUAUUACGGUAA are -1.81 ± 0.13 and -1.44 ± 0.11. The corresponding values for CGACAGCAAUAUUACGGUCU are -0.546 ± 0.039 and 0.187 ± 0.056. Take CGACAGCAAUAUUACGGUUU: the “self-splicing fitness (ln)” value is -1.64 ± 0.058 (30 °C) and -0.714 ± 0.084 (37 °C).

Consider CGACAGCAAUAUUACGUAUG, for which the “self-splicing fitness (ln)” value (30 °C) was -1.26 ± 0.076 and the “self-splicing fitness (ln)” value (37 °C) was -1.36 ± 0.1.

On to CGACAGCAAUAUUACGUCGG, for which the “self-splicing fitness (ln)” value was -1.83 ± 0.11 (30 °C) and -1.44 ± 0.15 (37 °C). With CGACAGCAAUAUUACGUGCU, the “self-splicing fitness (ln)” value reads like this: (30 °C) -4.84 ± 0.36; (37 °C) -3.46 ± 0.23.

Consider CGACAGCAAUAUUACGUUAC, for which the “self-splicing fitness (ln)” value (30 °C) is -3.39 ± 0.17 and the “self-splicing fitness (ln)” value (37 °C) was -2.29 ± 0.2. The corresponding values for CGACAGCAAUAUUACGUUGC are -3.9 ± 0.37 and -2.35 ± 0.36. The like results for CGACAGCAAUAUUACGUUUU were, in that order, -3.62 ± 0.15 and -1.54 ± 0.11. For the sequence CGAGAGCAAUAUUACGAAGU, the “self-splicing fitness (ln)” value (37 °C) is -3.51 ± 0.39. CGAGAGCAAUAUUACGAGAA: the “self-splicing fitness (ln)” value (37 °C) was -1.69 ± 0.43.

CGAGAGCAAUAUUACGAGAG: the “self-splicing fitness (ln)” value runs as follows: (30 °C) -3.58 ± 0.35; (37 °C) -0.712 ± 0.31. On to CGAGAGCAAUAUUACGAGCA, for which the “self-splicing fitness (ln)” value (30 °C) was -1.62 ± 0.34. With CGAGAGCAAUAUUACGAGGU, the “self-splicing fitness (ln)” value was -3.16 ± 0.21 (30 °C) and -2.02 ± 0.22 (37 °C).

Regarding CGAGAGCAAUAUUACGAGUC, the “self-splicing fitness (ln)” value is -3.99 ± 0.4 (30 °C) and -3.75 ± 0.34 (37 °C). The like results for CGAGAGCAAUAUUACGCACC were, in that order, -1.83 ± 0.28 and -2 ± 0.34. Take CGAGAGCAAUAUUACGCGAA: the “self-splicing fitness (ln)” value (30 °C) is -2.39 ± 0.27 and the “self-splicing fitness (ln)” value (37 °C) is -1.89 ± 0.37. Regarding CGAGAGCAAUAUUACGCUCU, the “self-splicing fitness (ln)” value is -3.65 ± 0.27 (30 °C) and -2.62 ± 0.3 (37 °C). For the sequence CGAGAGCAAUAUUACGGACC, the “self-splicing fitness (ln)” value (30 °C) was -3.73 ± 0.44.

Turning to CGAGAGCAAUAUUACGGACU, the “self-splicing fitness (ln)” value is -1.89 ± 0.29 (30 °C) and -2.14 ± 0.38 (37 °C). The like results for CGAGAGCAAUAUUACGUAUC were, in that order, -3.63 ± 0.25 and -1.87 ± 0.38. On to CGAGAGCAAUAUUACGUCCA, for which the “self-splicing fitness (ln)” value (37 °C) was -3.02 ± 0.43. Turning to CGAGAGCAAUAUUACGUUAC, the “self-splicing fitness (ln)” value reads like this: (30 °C) -4.23 ± 0.28; (37 °C) -2.29 ± 0.24.
